# From the supplement of paper PMC11908140
# B1: library; numbered along this chain (parent)
# chain: MRKPRAAVGSGHRKQAASQEGRQKHAKNNSQAKPSACDGLARQPEEVVLQASVSSYHLFRDVAEVTAFRGSLLSWYDQEKRDLPWRRRAEDEMDLDRRAYAVWVSEVMLQQTQVATVINYYTGWMQKWPTLQDLASASLEEVNQLWAGLGYYSRGRRLQEGARKVVEELGGHMPRTAETLQQLLPGVGRYTAGAIASIAFGQATGVVDGNVARVLCRVRAIGADPSSTLVSQQLWGLAQQLVDPARPGDFNQAAMELGATVCTPQRPLCSQCPVESLCRARQRVEQEQLLASGSLSGSPDVEECAPNTGQCHLCLPPSEPWDQTLGVVNFPRKASRKPPREESSATCVLEQPGALGAQILLVQRPNSGLLAGLWEFPSVTWEPSEQLQRKALLQELQRWAGPLPATHLRHLGEVVHTFSHIKLTYQVYGLALEGQTPVTTVPPGARWLTQEEFHTAAVSTAMKKVFRVYQGQQPGTCMGSKRSQVSSPCSRKKPRMGQQVLDNFFRSHISTDAHSLNSAAQ
# Variants of: B1
# Assay: 8OG:A repair function score (normalized; synonymous = 0, nonsense = -1) (normalized log-likelihood score); higher = more repair activity (WT-like)
# Settings: with 8OG:A DNA repair reporter (GFP) in HEK-293 MUTYH KO cells
# Procedure: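 Saturation mutagenesis (NNN codon scan) of the MUTYH cDNA (521-aa nuclear isoform NM_001048174.1 / NP_001041639), stably expressed under doxycycline induction in HEK-293 MUTYH knockout cells. Cells were co-transfected with an 8OG:A-bearing GFP repair reporter plus mCherry and sorted 72 h later into GFP+ and GFP− bins, three replicates per tile. The Rosace log2 enrichment (GFP+ vs GFP−) was converted per tile to a normalized function score with synonymous variants centered at 0 and nonsense variants (codons 1-471) at -1; low-abundance variants were removed.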
row,Variant,8OG:A repair function score
1,MRKPRAAVGSGHRKQAASQEGRQKHAKNNSQAKPSACDGLARQPEEVVLQASVSSYHLFRDVAEVTAFRGSLLSWYDQEKRDLPWRRRAEDEMDLDRRAYAVWVSEVMLQQTQVATVINYYTGWMQKWPTLQDLASASLEEVNQLWAGLGYYDRGRRLQEGARKVVEELGGHMPRTAETLQQLLPGVGRYTAGAIASIAFGQATGVVDGNVARVLCRVRAIGADPSSTLVSQQLWGLAQQLVDPARPGDFNQAAMELGATVCTPQRPLCSQCPVESLCRARQRVEQEQLLASGSLSGSPDVEECAPNTGQCHLCLPPSEPWDQTLGVVNFPRKASRKPPREESSATCVLEQPGALGAQILLVQRPNSGLLAGLWEFPSVTWEPSEQLQRKALLQELQRWAGPLPATHLRHLGEVVHTFSHIKLTYQVYGLALEGQTPVTTVPPGARWLTQEEFHTAAVSTAMKKVFRVYQGQQPGTCMGSKRSQVSSPCSRKKPRMGQQVLDNFFRSHISTDAHSLNSAAQ [S153D],-0.368
2,MRKPRAAVGSGHRKQAASQEGRQKHAKNNSQAKPSACDGLARQPEEVVLQASVSSYHLFRDVAEVTAFRGSLLSWYDQEKRDLPWRRRAEDEMDLDRRAYAVWVSEVMLQQTQVATVINYYTGWMQKWPTLQDLASASLEEVNQLWAGLGYYARGRRLQEGARKVVEELGGHMPRTAETLQQLLPGVGRYTAGAIASIAFGQATGVVDGNVARVLCRVRAIGADPSSTLVSQQLWGLAQQLVDPARPGDFNQAAMELGATVCTPQRPLCSQCPVESLCRARQRVEQEQLLASGSLSGSPDVEECAPNTGQCHLCLPPSEPWDQTLGVVNFPRKASRKPPREESSATCVLEQPGALGAQILLVQRPNSGLLAGLWEFPSVTWEPSEQLQRKALLQELQRWAGPLPATHLRHLGEVVHTFSHIKLTYQVYGLALEGQTPVTTVPPGARWLTQEEFHTAAVSTAMKKVFRVYQGQQPGTCMGSKRSQVSSPCSRKKPRMGQQVLDNFFRSHISTDAHSLNSAAQ [S153A],0.0766
3,MRKPRAAVGSGHRKQAASQEGRQKHAKNNSQAKPSACDGLARQPEEVVLQASVSSYHLFRDVAEVTAFRGSLLSWYDQEKRDLPWRRRAEDEMDLDRRAYAVWVSEVMLQQTQVATVINYYTGWMQKWPTLQDLASASLEEVNQLWAGLGYYERGRRLQEGARKVVEELGGHMPRTAETLQQLLPGVGRYTAGAIASIAFGQATGVVDGNVARVLCRVRAIGADPSSTLVSQQLWGLAQQLVDPARPGDFNQAAMELGATVCTPQRPLCSQCPVESLCRARQRVEQEQLLASGSLSGSPDVEECAPNTGQCHLCLPPSEPWDQTLGVVNFPRKASRKPPREESSATCVLEQPGALGAQILLVQRPNSGLLAGLWEFPSVTWEPSEQLQRKALLQELQRWAGPLPATHLRHLGEVVHTFSHIKLTYQVYGLALEGQTPVTTVPPGARWLTQEEFHTAAVSTAMKKVFRVYQGQQPGTCMGSKRSQVSSPCSRKKPRMGQQVLDNFFRSHISTDAHSLNSAAQ [S153E],-0.117
4,MRKPRAAVGSGHRKQAASQEGRQKHAKNNSQAKPSACDGLARQPEEVVLQASVSSYHLFRDVAEVTAFRGSLLSWYDQEKRDLPWRRRAEDEMDLDRRAYAVWVSEVMLQQTQVATVINYYTGWMQKWPTLQDLASASLEEVNQLWAGLGYYCRGRRLQEGARKVVEELGGHMPRTAETLQQLLPGVGRYTAGAIASIAFGQATGVVDGNVARVLCRVRAIGADPSSTLVSQQLWGLAQQLVDPARPGDFNQAAMELGATVCTPQRPLCSQCPVESLCRARQRVEQEQLLASGSLSGSPDVEECAPNTGQCHLCLPPSEPWDQTLGVVNFPRKASRKPPREESSATCVLEQPGALGAQILLVQRPNSGLLAGLWEFPSVTWEPSEQLQRKALLQELQRWAGPLPATHLRHLGEVVHTFSHIKLTYQVYGLALEGQTPVTTVPPGARWLTQEEFHTAAVSTAMKKVFRVYQGQQPGTCMGSKRSQVSSPCSRKKPRMGQQVLDNFFRSHISTDAHSLNSAAQ [S153C],-0.074
5,MRKPRAAVGSGHRKQAASQEGRQKHAKNNSQAKPSACDGLARQPEEVVLQASVSSYHLFRDVAEVTAFRGSLLSWYDQEKRDLPWRRRAEDEMDLDRRAYAVWVSEVMLQQTQVATVINYYTGWMQKWPTLQDLASASLEEVNQLWAGLGYNSRGRRLQEGARKVVEELGGHMPRTAETLQQLLPGVGRYTAGAIASIAFGQATGVVDGNVARVLCRVRAIGADPSSTLVSQQLWGLAQQLVDPARPGDFNQAAMELGATVCTPQRPLCSQCPVESLCRARQRVEQEQLLASGSLSGSPDVEECAPNTGQCHLCLPPSEPWDQTLGVVNFPRKASRKPPREESSATCVLEQPGALGAQILLVQRPNSGLLAGLWEFPSVTWEPSEQLQRKALLQELQRWAGPLPATHLRHLGEVVHTFSHIKLTYQVYGLALEGQTPVTTVPPGARWLTQEEFHTAAVSTAMKKVFRVYQGQQPGTCMGSKRSQVSSPCSRKKPRMGQQVLDNFFRSHISTDAHSLNSAAQ [Y152N],-0.779
6,MRKPRAAVGSGHRKQAASQEGRQKHAKNNSQAKPSACDGLARQPEEVVLQASVSSYHLFRDVAEVTAFRGSLLSWYDQEKRDLPWRRRAEDEMDLDRRAYAVWVSEVMLQQTQVATVINYYTGWMQKWPTLQDLASASLEEVNQLWAGLGYPSRGRRLQEGARKVVEELGGHMPRTAETLQQLLPGVGRYTAGAIASIAFGQATGVVDGNVARVLCRVRAIGADPSSTLVSQQLWGLAQQLVDPARPGDFNQAAMELGATVCTPQRPLCSQCPVESLCRARQRVEQEQLLASGSLSGSPDVEECAPNTGQCHLCLPPSEPWDQTLGVVNFPRKASRKPPREESSATCVLEQPGALGAQILLVQRPNSGLLAGLWEFPSVTWEPSEQLQRKALLQELQRWAGPLPATHLRHLGEVVHTFSHIKLTYQVYGLALEGQTPVTTVPPGARWLTQEEFHTAAVSTAMKKVFRVYQGQQPGTCMGSKRSQVSSPCSRKKPRMGQQVLDNFFRSHISTDAHSLNSAAQ [Y152P],-1.28
